From patent US20230002480A1

Key:
Experiment in all cases: cell-based or functional assay
[1] = biological target: HIV-1 Env of pseudovirus Du422.1 (HIV-1)
[2] = biological target: HIV-1 Env of pseudovirus T257-31 (HIV-1)
[3] = biological target: HIV-1 Env of pseudovirus Q842.d12 (HIV-1)
[4] = biological target: HIV-1 Env of pseudovirus PVO.4 (HIV-1)
[5] = biological target: HIV-1 Env of pseudovirus 1394C9G1(Rev-) (HIV-1)
[6] = biological target: HIV-1 Env of pseudovirus CAP45.2.00.G3 (HIV-1)
[7] = biological target: HIV-1 Env of pseudovirus 1056_10_TA11_1826 (HIV-1)
[8] = biological target: HIV-1 Env of pseudovirus HIV-0013095-2.11 (HIV-1)
[9] = biological target: HIV-1 Env of pseudovirus Q769.d22 (HIV-1)
[10] = biological target: HIV-1 Env of pseudovirus HIV-001428-2.42 (HIV-1)
[11] = biological target: HIV-1 Env of pseudovirus TRJO4551.58 (HIV-1)
[12] = biological target: HIV-1 Env of pseudovirus Q23.17 (HIV-1)
[13] = biological target: HIV-1 Env of pseudovirus 249M B10 (HIV-1)
[14] = biological target: HIV-1 Env of pseudovirus T250-4 (HIV-1)
[15] = biological target: HIV-1 Env of pseudovirus 263-8 (HIV-1)
[16] = biological target: HIV-1 Env of pseudovirus Du156.12 (HIV-1)
[17] = biological target: HIV-1 Env of pseudovirus 191955_A11 (HIV-1)
[18] = biological target: HIV-1 Env of pseudovirus 9004SS_A3_4 (HIV-1)
[19] = biological target: HIV-1 Env of pseudovirus CNE17 (HIV-1)
[20] = biological target: HIV-1 Env of pseudovirus CNE53 (HIV-1)
[21] = biological target: HIV-1 Env of pseudovirus 6535.3 (HIV-1)
[22] = biological target: HIV-1 Env of pseudovirus 928-28 (HIV-1)
[23] = biological target: HIV-1 Env of pseudovirus Q461.e2 (HIV-1)
[24] = biological target: HIV-1 Env of pseudovirus Ce2060_G9 (HIV-1)
[25] = biological target: HIV-1 Env of pseudovirus ZM247v1(Rev-) (HIV-1)
[26] = biological target: HIV-1 Env of pseudovirus 6240_08_TA5_4622 (HIV-1)
[27] = biological target: HIV-1 Env of pseudovirus 191084 B7-19 (HIV-1)

In the case of PG16 (antibody), the IC50, titer in TZM.bl cells [1] was 0.261 µg/mL, the IC80, titer in TZM.bl cells [1] was 33.8 µg/mL and the IC50, titer in TZM.bl cells [2] was 0.007 µg/mL. The IC80, titer in TZM.bl cells [2] was 0.021 µg/mL, the IC50, titer in TZM.bl cells [3] was 0.032 µg/mL and the IC80, titer in TZM.bl cells [3] was over 0.25 µg/mL. It also gave an IC50, titer in TZM.bl cells [4] of 15.3 µg/mL, an IC80, titer in TZM.bl cells [4] of over 50 µg/mL and an IC50, titer in TZM.bl cells [5] of 0.008 µg/mL. For the same substance, the IC80, titer in TZM.bl cells [5] was 0.056 µg/mL, the IC50, titer in TZM.bl cells [6] was 0.001 µg/mL and the IC80, titer in TZM.bl cells [6] was 0.003 µg/mL. The IC50, titer in TZM.bl cells [7] was 0.315 µg/mL, the IC80, titer in TZM.bl cells [7] was 1.95 µg/mL and the IC50, titer in TZM.bl cells [8] was 0.002 µg/mL. The IC80, titer in TZM.bl cells [8] was 0.006 µg/mL, the IC50, titer in TZM.bl cells [9] was 0.005 µg/mL and the IC80, titer in TZM.bl cells [9] was 0.018 µg/mL. For the same substance, the IC50, titer in TZM.bl cells [10] was 0.039 µg/mL, the IC80, titer in TZM.bl cells [10] was 0.25 µg/mL and the IC50, titer in TZM.bl cells [11] was 1.01 µg/mL. For the same substance, the IC80, titer in TZM.bl cells [11] was 24.5 µg/mL, the IC50, titer in TZM.bl cells [12] was 0.008 µg/mL and the IC80, titer in TZM.bl cells [12] was 0.043 µg/mL. For the same substance, the IC50, titer in TZM.bl cells [13] was 0.026 µg/mL, the IC80, titer in TZM.bl cells [13] was 1.25 µg/mL and the IC50, titer in TZM.bl cells [14] was 0.002 µg/mL. It also gave an IC80, titer in TZM.bl cells [14] of 0.005 µg/mL, an IC50, titer in TZM.bl cells [15] of 0.347 µg/mL and an IC80, titer in TZM.bl cells [15] of 4.97 µg/mL. For the same substance, the IC50, titer in TZM.bl cells [16] was 0.006 µg/mL, the IC80, titer in TZM.bl cells [16] was 0.026 µg/mL and the IC50, titer in TZM.bl cells [17] was 0.009 µg/mL. For the same substance, the IC80, titer in TZM.bl cells [17] was 0.042 µg/mL, the IC50, titer in TZM.bl cells [18] was 0.02 µg/mL and the IC80, titer in TZM.bl cells [18] was 0.111 µg/mL. For the same substance, the IC50, titer in TZM.bl cells [19] was 0.029 µg/mL, the IC80, titer in TZM.bl cells [19] was 0.132 µg/mL and the IC50, titer in TZM.bl cells [20] was over 50 µg/mL. For the same substance, the IC80, titer in TZM.bl cells [20] was over 50 µg/mL, the IC50, titer in TZM.bl cells [21] was 0.653 µg/mL and the IC80, titer in TZM.bl cells [21] was over 50 µg/mL. It also gave an IC50, titer in TZM.bl cells [22] of 0.034 µg/mL, an IC80, titer in TZM.bl cells [22] of 0.237 µg/mL and an IC50, titer in TZM.bl cells [23] of 1.75 µg/mL. It also gave an IC80, titer in TZM.bl cells [23] of over 50 µg/mL, an IC50, titer in TZM.bl cells [24] of 0.075 µg/mL and an IC80, titer in TZM.bl cells [24] of 1.71 µg/mL. The IC50, titer in TZM.bl cells [25] was 0.016 µg/mL, the IC80, titer in TZM.bl cells [25] was 0.189 µg/mL and the IC50, titer in TZM.bl cells [26] was over 50 µg/mL. For the same substance, the IC80, titer in TZM.bl cells [26] was over 50 µg/mL, the IC50, titer in TZM.bl cells [27] was 0.024 µg/mL and the IC80, titer in TZM.bl cells [27] was 0.238 µg/mL.

Work on 10E8 (antibody) yielded an IC50, titer in TZM.bl cells [1] of 0.351 µg/mL, an IC80, titer in TZM.bl cells [1] of 1.88 µg/mL and an IC50, titer in TZM.bl cells [2] of 0.88 µg/mL. It also gave an IC80, titer in TZM.bl cells [2] of 5.78 µg/mL, an IC50, titer in TZM.bl cells [3] of 4.19 µg/mL and an IC80, titer in TZM.bl cells [3] of over 10 µg/mL. For the same substance, the IC50, titer in TZM.bl cells [4] was 0.747 µg/mL, the IC80, titer in TZM.bl cells [4] was over 10 µg/mL and the IC50, titer in TZM.bl cells [5] was 0.963 µg/mL. For the same substance, the IC80, titer in TZM.bl cells [5] was 5.33 µg/mL, the IC50, titer in TZM.bl cells [6] was 1.82 µg/mL and the IC80, titer in TZM.bl cells [6] was over 10 µg/mL. It also gave an IC50, titer in TZM.bl cells [7] of 0.134 µg/mL, an IC80, titer in TZM.bl cells [7] of 1.03 µg/mL and an IC50, titer in TZM.bl cells [8] of 0.031 µg/mL. For the same substance, the IC80, titer in TZM.bl cells [8] was 0.213 µg/mL, the IC50, titer in TZM.bl cells [9] was 1.67 µg/mL and the IC80, titer in TZM.bl cells [9] was 10 µg/mL. For the same substance, the IC50, titer in TZM.bl cells [10] was 0.809 µg/mL, the IC80, titer in TZM.bl cells [10] was 7.3 µg/mL and the IC50, titer in TZM.bl cells [11] was 0.475 µg/mL. For the same substance, the IC80, titer in TZM.bl cells [11] was 4.78 µg/mL, the IC50, titer in TZM.bl cells [12] was 1.64 µg/mL and the IC80, titer in TZM.bl cells [12] was 7.04 µg/mL. For the same substance, the IC50, titer in TZM.bl cells [13] was 1.27 µg/mL, the IC80, titer in TZM.bl cells [13] was 9.05 µg/mL and the IC50, titer in TZM.bl cells [14] was 1.35 µg/mL. It also gave an IC80, titer in TZM.bl cells [14] of 8.13 µg/mL, an IC50, titer in TZM.bl cells [15] of 0.196 µg/mL and an IC80, titer in TZM.bl cells [15] of 1.73 µg/mL. It also gave an IC50, titer in TZM.bl cells [16] of 0.034 µg/mL, an IC80, titer in TZM.bl cells [16] of 0.144 µg/mL and an IC50, titer in TZM.bl cells [17] of 0.68 µg/mL. It also gave an IC80, titer in TZM.bl cells [17] of 3.53 µg/mL, an IC50, titer in TZM.bl cells [18] of 1.16 µg/mL and an IC80, titer in TZM.bl cells [18] of 6.76 µg/mL. For the same substance, the IC50, titer in TZM.bl cells [19] was 1.11 µg/mL, the IC80, titer in TZM.bl cells [19] was 5.25 µg/mL and the IC50, titer in TZM.bl cells [20] was 0.326 µg/mL. It also gave an IC80, titer in TZM.bl cells [20] of 1.92 µg/mL, an IC50, titer in TZM.bl cells [21] of 0.081 µg/mL and an IC80, titer in TZM.bl cells [21] of 1.32 µg/mL. The IC50, titer in TZM.bl cells [22] was 0.384 µg/mL, the IC80, titer in TZM.bl cells [22] was 1.96 µg/mL and the IC50, titer in TZM.bl cells [23] was 2.11 µg/mL. It also gave an IC80, titer in TZM.bl cells [23] of over 10 µg/mL, an IC50, titer in TZM.bl cells [24] of 3.52 µg/mL and an IC80, titer in TZM.bl cells [24] of over 10 µg/mL. It also gave an IC50, titer in TZM.bl cells [25] of 0.506 µg/mL, an IC80, titer in TZM.bl cells [25] of 6.75 µg/mL and an IC50, titer in TZM.bl cells [26] of 0.756 µg/mL. For the same substance, the IC80, titer in TZM.bl cells [26] was 5.59 µg/mL, the IC50, titer in TZM.bl cells [27] was 5.16 µg/mL and the IC80, titer in TZM.bl cells [27] was over 10 µg/mL.
